Earlier results, collected in patent US20100086958A1, “NOVEL ENZYME” (priority 2008, published 2010).
Numbering of substitutions follows the chain as printed. In names and notes the source's numbering stands. Like-named read-outs stand apart in the source and are kept apart here.

Columns and labels:
[1] = literature, cited from earlier work; for Km: read-out: Km NAD^+
[2] = data from Serov et al. (2002), cited from earlier work
[3] = literature, cited from earlier work; for Km: read-out: Km NADP^+
[4] = unit = μmol formate oxidized per min; literature; cited from earlier work
[5] = ADHs (DroADH, SceADH), AlaDHs, GAPDH

B1: WT_BstGAPDH: wild type glyceraldehydes-3-phosphate dehydrogenase from Bacillus stearothermophilus (protein, UniProt P00362 2-335, looked up)
Glyceraldehyde-3-phosphate …: AVKVGINGFGRIGRNVFRAALKNPDIEVVAVNDLTDANTLAHLLKYDSVHGRLDAEVSVNGNNLVVNGKEIIVKAERDPENLAWGEIGVDIVVESTGRFTKREDAAKHLEAGAKKVIISAPAKNEDITIVMGVNQDKYDPKAHHVISNASCTTNCLAPFAKVLHEQFGIVRGMMTTVHSYTNDQRILDLPHKDLRRARAAAESIIPTTTGAAKAVALVLPELKGKLNGMAMRVPTPNVSVVDLVAELEKEVTVEEVNAALKAAAEGELKGILAYSEEPLVSRDYNGSTVSSTIDALSTMVIDGKMVKVVSWYDNETGYSHRVVDLAAYIASKGL
- kcat NAD^+ [1, 5]: 280 s⁻¹
- Km [1, 5]: 150 µM

B2: SceFDH: FDH from S. cerevisiae, Seq ID No: 4 (protein, listed as Saccharomyces cerevisiae)
chain: MSKGKVLLVLYEGGKHAEEQEKLLGCIENELGIRNFIEEQGYELVTTIDKDPEPTSTVDRELKDAEIVITTPFFPAYISRNRIAEAPNLKLCVTAGVGSDHVDLEAANERKITVTEVTGSNVVSVAEHVMATILVLIRNYNGGHQQAINGEWDIAGVAKNEYDLEDKIISTVGAGRIGYRVLERLVAFNPKKLLYYDYQELPAEAINRLNEASKLFNGRGDIVQRVEKLEDMVAQSDVVTINCPLHKDSRGLFNKKLISHMKDGAYLVNTARGAICVAEDVAEAVKSGKLAGYGGDVWDKQPAPKDHPWRTMDNKDHVGNAMTVHISGTSLDAQKRYAQGVKNILNSYFSKKFDYRPQDIIVQN
- kcat NAD^+ [2]: 6.5 ± 0.4 s⁻¹
- Km ([2]; read-out: Km NAD^+): 36 ± 5 µM

B3: WT_17β-HSDHs: wild type human estrogenic 17β-hydroxysteroid dehydrogenase (protein, UniProt P14061 2-328, looked up)
17-beta-hydroxysteroid …: ARTVVLITGCSSGIGLHLAVRLASDPSQSFKVYATLRDLKTQGRLWEAARALACPPGSLETLQLDVRDSKSVAAARERVTEGRVDVLVCNAGLGLLGPLEALGEDAVASVLDVNVVGTVRMLQAFLPDMKRRGSGRVLVTGSVGGLMGLPFNDVYCASKFALEGLCESLAVLLLPFGVHLSLIECGPVHTAFMEKVLGSPEEVLDRTDIHTFHRFYQYLAHSKQVFREAAQNPEEVAEVFLTALRAPKPTLRYFTTERFLPLLRMRLDDPSGSNYVTAMHREVFGDVPAKAEAGAEAGGGAGPGAEDEAGRGAVGDPELGDPPAAPQ
- kcat NADP^+ ([3]; 17β-HSDHs): 252 ± 12 min⁻¹
- kcat NAD^+ ([1]; 17β-HSDHs): 7.5 ± 0.1 s⁻¹
- Km ([1]; 17β-HSDHs): 11.8 ± 0.8 µM

B4: L36D 17β-HSDHs: L36D mutant of human estrogenic 17β-hydroxysteroid dehydrogenase (protein, UniProt P14061 2-328, looked up, variant L36D)
17-beta-hydroxysteroid …: B3 17-beta-hydroxysteroid … with L36D
- kcat NADP^+ ([3]; 17β-HSDHs): 1000 ± 132 min⁻¹
- kcat NAD^+ ([1]; 17β-HSDHs): 13.9 ± 0.8 s⁻¹
- Km ([1]; 17β-HSDHs): 83 ± 5 µM

B5: WT_SceADH: wild type ADH from Saccharomyces cerevisiae (protein, UniProt P00330 2-348, looked up)
Alcohol dehydrogenase 1: SIPETQKGVIFYESHGKLEYKDIPVPKPKANELLINVKYSGVCHTDLHAWHGDWPLPVKLPLVGGHEGAGVVVGMGENVKGWKIGDYAGIKWLNGSCMACEYCELGNESNCPHADLSGYTHDGSFQQYATADAVQAAHIPQGTDLAQVAPILCAGITVYKALKSANLMAGHWVAISGAAGGLGSLAVQYAKAMGYRVLGIDGGEGKEELFRSIGGEVFIDFTKEKDIVGAVLKATDGGAHGVINVSVSEAAIEASTRYVRANGTTVLVGMPAGAKCCSDVFNQVVKSISIVGSYVGNRADTREALDFFARGLVKSPIKVVGLSTLPEIYEKMEKGQIVGRYVVDTSK
- kcat NAD^+ [1, 5]: 360 s⁻¹
- Km [1, 5]: 160 µM

B6: CboFDH: wild type FDH from Candida Boidinii, Seq ID No: 13 (protein, listed as Candida boidinii)
chain: MKIVLVLYDAGKHAADEEKLYGCTENKLGIANWLKDQGHELITTSDKEGGNSVLDQHIPDADIIITTPFHPAYITKERIDKAKKLKLVVVAGVGSDHIDLDYINQTGKKISVLEVTGSNVVSVAEHVVMTMLVLVRNFVPAHEQIINHDWEVAAIAKDAYDIEGKTIATIGAGRIGYRVLERLVPFNPKELLYYDYQALPKDAEEKVGARRVENIEELVAQADIVTVNAPLHAGTKGLINKELLSKFKKGAWLVNTARGAICVAEDVAAALESGQLRGYGGDVWFPQPAPKDHPWRDMRNKYGAGNAMTPHYSGTTLDAQTRYAQGTKNILESFFTGKFDYRPQDIILLNGEYVTKAYGKHDKK
- activity with NADP^+ [4]: 0.0013 U/mg
- activity with NAD^+ [4]: 2.2 U/mg

B7: C. bodinii D195S: D195S mutant of C. bodinii FDH (protein, UniProt O13437 1-364, looked up, variant D195S)
Formate dehydrogenase: B6 chain with G50E, N51T, V53E, Q56K, I79L, K84N, V184L, D195S, D202E, Q325E
- activity with NADP^+ [4]: 0.083 U/mg
- activity with NAD^+ [4]: 1.5 U/mg

B8: WT_PstPTDH: wild type phosphate dehydrogenase from Pseudomonas stutzeri (protein, UniProt O69054 1-336, looked up)
Phosphonate dehydrogenase: MLPKLVITHRVHDEILQLLAPHCELMTNQTDSTLTREEILRRCRDAQAMMAFMPDRVDADFLQACPELRVVGCALKGFDNFDVDACTARGVWLTFVPDLLTVPTAELAIGLAVGLGRHLRAADAFVRSGEFQGWQPQFYGTGLDNATVGILGMGAIGLAMADRLQGWGATLQYHEAKALDTQTEQRLGLRQVACSELFASSDFILLALPLNADTQHLVNAELLALVRPGALLVNPCRGSVVDEAAVLAALERGQLGGYAADVFEMEDWARADRPRLIDPALLAHPNTLFTPHIGSAVRAVRLEIERCAAQNIIQVLAGARPINAANRLPKAEPAAC
- kcat NADP^+ ([3]; PTDH): 84.6 ± 0.5 min⁻¹
- Km ([3]; PTDH): 2510 ± 410 µM
- kcat NAD^+ ([1]; PTDH): 2.93 ± 0.14 s⁻¹
- Km ([1]; PTDH): 53 ± 9 µM

B9: E175A/A176R PstPTDH: E175A/A176R mutant of phosphate dehydrogenase from Pseudomonas stutzeri (protein, UniProt O69054 1-336, looked up, variant E175A A176R)
Phosphonate dehydrogenase: B8 Phosphonate dehydrogenase with E175A, A176R
- kcat NADP^+ ([3]; PTDH): 114.0 ± 0.5 min⁻¹
- Km ([3]; PTDH): 3.5 ± 0.5 µM
- kcat NAD^+ ([1]; PTDH): 3.94 ± 0.0083 s⁻¹
- Km ([1]; PTDH): 20 ± 1.3 µM

B10: A176R PstPTDH: A176R mutant of phosphate dehydrogenase from Pseudomonas stutzeri (protein, UniProt O69054 1-336, looked up, variant A176R)
Phosphonate dehydrogenase: B8 Phosphonate dehydrogenase with A176R
- kcat NADP^+ ([3]; PTDH): 130.8 ± 0.4 min⁻¹
- Km ([3]; PTDH): 77 ± 8.4 µM
- kcat NAD^+ ([1]; PTDH): 4.28 ± 0.0083 s⁻¹
- Km ([1]; PTDH): 60 ± 7 µM

B11: E175A PstPTDH: E175A mutant of phosphate dehydrogenase from Pseudomonas stutzeri (protein, UniProt O69054 1-336, looked up, variant E175A)
Phosphonate dehydrogenase: B8 Phosphonate dehydrogenase with E175A
- kcat NADP^+ ([3]; PTDH): 130.8 ± 0.4 min⁻¹
- Km ([3]; PTDH): 144 ± 14 µM
- kcat NAD^+ ([1]; PTDH): 3.5 ± 0.005 s⁻¹
- Km ([1]; PTDH): 16 ± 0.8 µM

B12: C. bodinii D195S/Y196H: D195S/Y196H mutant of C. bodinii FDH (protein, UniProt O13437 1-364, looked up, variant D195S Y196H)
Formate dehydrogenase: MKIVLVLYDAGKHAADEEKLYGCTENKLGIANWLKDQGHELITTSDKEGETSELDKHIPDADIIITTPFHPAYITKERLDKAKNLKLVVVAGVGSDHIDLDYINQTGKKISVLEVTGSNVVSVAEHVVMTMLVLVRNFVPAHEQIINHDWEVAAIAKDAYDIEGKTIATIGAGRIGYRVLERLLPFNPKELLYYSHQALPKEAEEKVGARRVENIEELVAQADIVTVNAPLHAGTKGLINKELLSKFKKGAWLVNTARGAICVAEDVAAALESGQLRGYGGDVWFPQPAPKDHPWRDMRNKYGAGNAMTPHYSGTTLDAQTRYAEGTKNILESFFTGKFDYRPQDIILLNGEYVTKAYGKHDKK
- activity with NADP^+ [4]: 0.19 U/mg
- activity with NAD^+ [4]: 1.3 U/mg

B13: C. bodinii D195S/Y196H/K356T: D195S/Y196H/K356T mutant of C. bodinii FDH (protein, UniProt O13437 1-364, looked up, variant D195S Y196H K356T)
Formate dehydrogenase: B12 Formate dehydrogenase with K356T
- activity with NADP^+ [4]: 0.36 U/mg
- activity with NAD^+ [4]: 1.3 U/mg

B14: WT_PstXDH: wild type xylitol dehydrogenase from Pichia stipitis (protein, UniProt P22144 1-363, looked up)
D-xylulose reductase: MTANPSLVLNKIDDISFETYDAPEISEPTDVLVQVKKTGICGSDIHFYAHGRIGNFVLTKPMVLGHESAGTVVQVGKGVTSLKVGDNVAIEPGIPSRFSDEYKSGHYNLCPHMAFAATPNSKEGEPNPPGTLCKYFKSPEDFLVKLPDHVSLELGALVEPLSVGVHASKLGSVAFGDYVAVFGAGPVGLLAAAVAKTFGAKGVIVVDIFDNKLKMAKDIGAATHTFNSKTGGSEELIKAFGGNVPNVVLECTGAEPCIKLGVDAIAPGGRFVQVGNAAGPVSFPITVFAMKELTLFGSFRYGFNDYKTAVGIFDTNYQNGRENAPIDFEQLITHRYKFKDAIEAYDLVRAGKGAVKCLIDGPE
- kcat NADP^+ ([3]; ADHs (KlADH III), G6PDHs, XDHs): 110 ± 10 min⁻¹
- kcat NAD^+ ([1]; ADHs (KlADH III), G6PDHs, XDHs): 17.5 ± 0.5 s⁻¹
- Km ([1]; ADHs (KlADH III), G6PDHs, XDHs): 381 ± 30 µM

B15: WT_DroADH: wild type ADH from Drosophila (protein, UniProt P00334 2-256, looked up)
Alcohol dehydrogenase: SFTLTNKNVIFVAGLGGIGLDTSKELLKRDLKNLVILDRIENPAAIAELKAINPKVTVTFYPYDVTVPIAETTKLLKTIFAQLKTVDVLINGAGILDDHQIERTIAVNYTGLVNTTTAILDFWDKRKGGPGGIICNIGSVTGFNAIYQVPVYSGTKAAVVNFTSSLAKLAPITGVTAYTVNPGITRTTLVHKFNSWLDVEPQVAEKLLAHPTQPSLACAENFVKAIELNQNGAIWKLDLGTLEAIQWTKHWDSGI
- kcat NADP^+ [3, 5]: 42.9 min⁻¹
- Km [3, 5]: 3090 ± 700 µM
- kcat NAD^+ [1, 5]: 10.2 s⁻¹
- Km [1, 5]: 48 ± 1 µM

B16: A46R DroADH: A46R mutant of ADH from Drosophila (protein, UniProt P00334 2-256, looked up, variant A46R)
Alcohol dehydrogenase: B15 Alcohol dehydrogenase with A45R
- kcat NADP^+ [3, 5]: 114 min⁻¹
- Km [3, 5]: 1270 ± 100 µM
- kcat NAD^+ [1, 5]: 7.3 s⁻¹
- Km [1, 5]: 57 ± 3 µM
